# The RNAGym collection of RNA variant scans (doi:10.7554/elife.80360)
# B1: Hairpin Ribozyme (parent)
# chain: GUCCUCUUUCACGUGCGCGUGAAAGAGAGAAGUGAACCAGAGAAACACACGUUGUGGUAUAUUACCUGGUA
# Variants of: B1
# Assay: self-cleavage, relative activity (ratio to wild type); higher = more cleavage; co-transcriptional
row,Variant,self-cleavage
1,C50U G54U,0.905
2,C50G U63G,0.0983
3,G51U A64G,0.544
4,C50G A71C,0.69
5,G51U G68A,0.312
6,G51U G68C,0.274
7,C50U A59C,0.166
8,C50U A59G,0.204
9,G51A U63G,0.135
10,C50A U70G,0.252
11,C50A U70A,0.303
12,A49U U67C,0.11
13,A49U U67A,0.0529
14,C50G G57U,0.307
15,G51C A59U,0.172
16,G51C A59G,0.166
17,U52C A64G,0.546
18,U52C A64C,0.128
19,G51A A71U,0.718
20,G51A A71G,0.934
21,C50U U62A,0.185
22,C50A A64G,0.211
23,U52A G68U,0.309
24,U52A G68A,0.337

row,Variant,self-cleavage
1,G51C A61C,0.0996
2,C50U U55A,0.32
3,C50U U55C,0.615
4,G51U G56A,0.153
5,G51U G56U,0.0869
6,G51A C66A,0.344
7,G51C C66U,0.452
8,G51C C66A,0.184
9,G51C A71C,1.3
10,G51C A71G,0.814
11,U52A C65G,0.258
12,U52A G56A,0.256
13,G51U U52A,1.1
14,G51U U52G,0.648
15,G51U G69A,0.457
16,G51U G69U,0.287
17,G51A U62C,0.364
18,G51A U62A,0.137
19,C50A U62C,0.147
20,C50A U62A,0.0965
21,C50A U62G,0.177
22,C50G G68U,0.22
23,G51A G56A,0.197
24,C50U C66G,0.166

row,Variant,self-cleavage
1,C50U C66A,0.165
2,G51A G54U,0.649
3,G51A G54A,0.62
4,G51C U52C,1.16
5,C50U U52A,0.456
6,C50U U52C,0.343
7,C50U U53A,0.335
8,U52A A64G,0.603
9,U52A A64C,0.253
10,C50U G51U,0.424
11,C50U G51A,0.322
12,G51U U67A,0.236
13,C50G A64C,0.201
14,C50U A61U,0.13
15,C50U A61C,0.181
16,G51C U60G,0.62
17,G51C U53A,0.72
18,G51A U67C,0.296
19,G51A U67A,0.291
20,U52A U70C,0.801
21,U52A U70G,0.86
22,U52A U70A,0.825
23,G51A U58C,1.09
24,C50G U55C,0.16

row,Variant,self-cleavage
1,C50G U67C,0.0994
2,C50A U55C,0.582
3,G51C U70G,0.704
4,A49U U70C,0.124
5,G51A A64U,0.22
6,C50G U58G,0.147
7,U52A U67G,0.408
8,G51C G56C,0.065
9,C50A U60C,0.419
10,U52A U58G,0.678
11,U52A U58C,0.881
12,U52A U58A,0.818
13,C50G C65U,0.0289
14,U52A G69U,0.325
15,U52A G69A,0.464
16,C50A A59U,0.231
17,C50A G54A,0.742
18,C50A G54C,0.375
19,U52A A61C,0.256
20,G51U A71G,1.24
21,G51U U58C,0.982
22,G51U U58G,0.797
23,G51U C66A,0.192
24,G51A U52C,0.738

row,Variant,self-cleavage
1,G51A U52G,0.981
2,C50U G57U,0.183
3,C50U G57C,0.16
4,C50U U58G,0.262
5,C50A C65G,0.0746
6,C50A C65A,0.142
7,G51C U67A,0.123
8,G51U U70C,1.01
9,G51U U70A,1.1
10,G51U U70G,0.887
11,C50G A59G,0.211
12,C50G A59C,0.221
13,U52A G54U,0.64
14,U52A G54C,0.47
15,G51A U70A,1.09
16,G51A U70C,1.1
17,U52C A59U,0.115
18,G51U C65G,0.354
19,C50A G69U,0.173
20,C50A A61U,0.281
21,C50U U63C,0.217
22,C50U U63G,0.198
23,C50U U63A,0.172
24,C50G U62C,0.158

row,Variant,self-cleavage
1,C50G U62G,0.151
2,C50U G69C,0.142
3,C50U G69A,0.112
4,G51A C65A,1.17
5,G51A C65G,0.287
6,C50U U67A,0.2
7,C50U U67G,0.181
8,C50G G54A,0.487
9,C50G G54U,0.441
10,U52A U63C,0.32
11,U52A U63A,0.424
12,U52A U55C,0.438
13,U52A U55A,0.33
14,G51U U53C,0.777
15,G51U U53A,1.07
16,C50G U70C,0.498
17,G51U U62A,0.25
18,G51A A59C,0.181
19,G51A U53C,1.28
20,G51U A59C,0.103
21,C50G C66U,0.146
22,U52A G57C,0.0886
23,C50U G56U,0.121
24,G51U A61C,0.109

row,Variant,self-cleavage
1,C50G G51C,0.327
2,C50A G57C,0.133
3,G51A G69C,0.467
4,C50A U53A,0.384
5,C50U A71G,0.457
6,C50U A64U,0.0365
7,C50U A64C,0.159
8,C50U C65G,0.161
9,U52A U60G,0.54
10,G51C,0.876
11,G51U,1.03
12,G51A,1.03
13,A49U U62C,0.196
14,C50G G69A,0.152
15,C50G G69C,0.227
16,A49U U63G,0.111
17,A49U U63A,0.183
18,C50U G68U,0.16
19,C50A U58A,0.183
20,C50A U58C,0.144
21,G51C G68C,0.322
22,G51C G68A,0.254
23,C50G U52G,0.312
